Results from patent US20140087995A1 (published 2014).
Numbered stars: 1 amine (or outer) side, 2 acyl side, 3 side chain; on linkers, the order of the positions; unused ones are H or OH. Bridge positions count the residues as written; N and C are the ends. Side chains are listed from the residue outwards. Ends that are not written are not given here. * marks the point of attachment. C20 diacid = O=C(O)CCCCCCCCCCCCCCCCCCC(=O)*; γGlu = O=C(O)[C@H](CCC(=O)[*:2])N[*:1]

T1: human calcitonin receptor (human, UniProt P30988 25-474)
T1 construct: whole, on cells; Assay used cell membranes, not intact cells; also called hCTR; hCT
T1 sequence (looked up): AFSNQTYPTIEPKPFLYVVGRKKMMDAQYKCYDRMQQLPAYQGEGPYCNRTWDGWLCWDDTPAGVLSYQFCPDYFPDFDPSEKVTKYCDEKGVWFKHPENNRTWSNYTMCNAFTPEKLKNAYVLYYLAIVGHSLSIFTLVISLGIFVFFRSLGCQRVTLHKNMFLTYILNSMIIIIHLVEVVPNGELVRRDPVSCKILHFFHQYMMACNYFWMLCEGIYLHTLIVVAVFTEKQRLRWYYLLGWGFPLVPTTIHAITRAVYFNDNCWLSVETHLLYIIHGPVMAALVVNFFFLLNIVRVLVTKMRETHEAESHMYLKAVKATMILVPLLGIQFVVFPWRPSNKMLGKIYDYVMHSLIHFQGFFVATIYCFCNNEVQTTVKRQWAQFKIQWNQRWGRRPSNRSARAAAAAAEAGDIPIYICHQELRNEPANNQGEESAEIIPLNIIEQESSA

T2: human amylin receptor (amylin 3(a) receptor: human calcitonin receptor with RAMP-3) (human, UniProt P30988 25-474; O60896 24-148)
T2 construct: whole, on cells; Assay used cell membranes of the Amylin 3(a)/CRE-luc BHK cells, not intact cells; also called hAmylin-R; hAmylinR
T2 sequence (looked up) 1: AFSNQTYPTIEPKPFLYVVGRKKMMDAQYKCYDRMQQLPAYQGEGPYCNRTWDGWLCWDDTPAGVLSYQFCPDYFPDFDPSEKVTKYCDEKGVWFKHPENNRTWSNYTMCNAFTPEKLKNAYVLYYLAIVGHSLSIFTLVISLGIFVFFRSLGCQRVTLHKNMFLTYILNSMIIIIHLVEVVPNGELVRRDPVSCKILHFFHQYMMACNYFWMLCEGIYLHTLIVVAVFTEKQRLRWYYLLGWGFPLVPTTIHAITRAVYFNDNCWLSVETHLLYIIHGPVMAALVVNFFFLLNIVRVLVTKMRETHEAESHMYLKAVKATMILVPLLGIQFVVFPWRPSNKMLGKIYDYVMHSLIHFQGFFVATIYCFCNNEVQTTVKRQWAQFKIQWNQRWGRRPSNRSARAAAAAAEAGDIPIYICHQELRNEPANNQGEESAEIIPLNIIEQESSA
T2 sequence (looked up) 2: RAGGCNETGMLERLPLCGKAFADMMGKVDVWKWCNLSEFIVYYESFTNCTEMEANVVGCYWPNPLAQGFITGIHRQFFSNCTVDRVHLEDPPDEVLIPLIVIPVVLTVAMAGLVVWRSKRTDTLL


Experiments:
[1] = target: T1, human calcitonin receptor; assay: ratio IC50 hCTR / IC50 hAmylin-R (reference: human amylin receptor), SPA competition assays
In short: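 IC₅₀ values were derived by one-site competition analysis of SPA counts. Cell membranes (35 ng/μL) with SPA beads were incubated with test compounds for 120 min at 25° C in Hepes buffer, pH 7.4, containing CaCl2, MgCl₂, OA and Tween20.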

[2] = target: T1, human calcitonin receptor; assay: SPA competition with 125I-calcitonin on membranes of BHK cells with human calcitonin receptor (Assay VII)
In short: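 BHK hCTR membranes 35 ng/μL + SPA beads 0.05 mg/well; buffer 50 mM Hepes pH 7.4, 1 mM CaCl2, 5 mM MgCl₂, 0.1% OA, 0.02% Tween20. 120 min, 25° C., shaking. Scintillation count; IC50 by one-site binding competition.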

[3] = target: T2, human amylin receptor (amylin 3(a) …); assay: SPA competition with 125I-rat amylin on membranes of BHK cells with human calcitonin receptor and RAMP-3 (Assay V)
In short: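 Cell membranes were prepared by homogenisation in Na-HEPES/EDTA buffer, pH 7.4, and stored at −80° C. They were then coupled to SPA beads at 35 ng/μL final and exposed to compounds in assay buffer containing CaCl2, MgCl₂, OA and Tween20. After 120 min at 25° C, plates were counted and IC₅₀ derived.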

| Binder | Ratio hCT/hAmylin binding [1] | IC50 [2] | IC50 [3] |
| --- | --- | --- | --- |
| K([γGlu-γGlu-C20 diacid])CNTATCATQRLADFLRHSSPNFGAIPSSTNVGPRTY-NH2 (disulfide 2-7; N-terminus assumed; SMILES CC[C@H](C)[C@H](NC(=O)[C@H](C)NC(=O)CNC(=O)[C@H](Cc1ccccc1)NC(=O)[C@H](CC(N)=O)NC(=O)[C@@H]1CCCN1C(=O)[C@H](CO)NC(=O)[C@H](CO)NC(=O)[C@H](Cc1c[nH]cn1)NC(=O)[C@H](CCCNC(=N)N)NC(=O)[C@H](CC(C)C)NC(=O)[C@H](Cc1ccccc1)NC(=O)[C@H](CC(=O)O)NC(=O)[C@H](C)NC(=O)[C@H](CC(C)C)NC(=O)[C@H](CCCNC(=N)N)NC(=O)[C@H](CCC(N)=O)NC(=O)[C@@H](NC(=O)[C@H](C)NC(=O)[C@@H]1CSSC[C@H](NC(=O)[C@@H](N)CCCCNC(=O)CC[C@H](NC(=O)CC[C@H](NC(=O)CCCCCCCCCCCCCCCCCCC(=O)O)C(=O)O)C(=O)O)C(=O)N[C@@H](CC(N)=O)C(=O)N[C@@H]([C@@H](C)O)C(=O)N[C@@H](C)C(=O)N[C@@H]([C@@H](C)O)C(=O)N1)[C@@H](C)O)C(=O)N1CCC[C@H]1C(=O)N[C@@H](CO)C(=O)N[C@@H](CO)C(=O)N[C@H](C(=O)N[C@@H](CC(N)=O)C(=O)N[C@H](C(=O)NCC(=O)N1CCC[C@H]1C(=O)N[C@@H](CCCNC(=N)N)C(=O)N[C@H](C(=O)N[C@@H](Cc1ccc(O)cc1)C(N)=O)[C@@H](C)O)C(C)C)[C@@H](C)O, also called compound 130) | 280 | 127 nM | 0.453 nM |
| K([γGlu-γGlu-C20 diacid])CNTATCATQRLADFLRHSSPNFGAIPSSTNVGPETY-NH2 (disulfide 2-7; N-terminus assumed; SMILES CC[C@H](C)[C@H](NC(=O)[C@H](C)NC(=O)CNC(=O)[C@H](Cc1ccccc1)NC(=O)[C@H](CC(N)=O)NC(=O)[C@@H]1CCCN1C(=O)[C@H](CO)NC(=O)[C@H](CO)NC(=O)[C@H](Cc1c[nH]cn1)NC(=O)[C@H](CCCNC(=N)N)NC(=O)[C@H](CC(C)C)NC(=O)[C@H](Cc1ccccc1)NC(=O)[C@H](CC(=O)O)NC(=O)[C@H](C)NC(=O)[C@H](CC(C)C)NC(=O)[C@H](CCCNC(=N)N)NC(=O)[C@H](CCC(N)=O)NC(=O)[C@@H](NC(=O)[C@H](C)NC(=O)[C@@H]1CSSC[C@H](NC(=O)[C@@H](N)CCCCNC(=O)CC[C@H](NC(=O)CC[C@H](NC(=O)CCCCCCCCCCCCCCCCCCC(=O)O)C(=O)O)C(=O)O)C(=O)N[C@@H](CC(N)=O)C(=O)N[C@@H]([C@@H](C)O)C(=O)N[C@@H](C)C(=O)N[C@@H]([C@@H](C)O)C(=O)N1)[C@@H](C)O)C(=O)N1CCC[C@H]1C(=O)N[C@@H](CO)C(=O)N[C@@H](CO)C(=O)N[C@H](C(=O)N[C@@H](CC(N)=O)C(=O)N[C@H](C(=O)NCC(=O)N1CCC[C@H]1C(=O)N[C@@H](CCC(=O)O)C(=O)N[C@H](C(=O)N[C@@H](Cc1ccc(O)cc1)C(N)=O)[C@@H](C)O)C(C)C)[C@@H](C)O) | 49.8 | 8.56 nM | 0.172 nM |
| K([γGlu-γGlu-C20 diacid])CNTATCATQRLAEFLRHSSPNFGAIPSSTNVGRNTY-NH2 (disulfide 2-7; N-terminus assumed; SMILES CC[C@H](C)[C@H](NC(=O)[C@H](C)NC(=O)CNC(=O)[C@H](Cc1ccccc1)NC(=O)[C@H](CC(N)=O)NC(=O)[C@@H]1CCCN1C(=O)[C@H](CO)NC(=O)[C@H](CO)NC(=O)[C@H](Cc1c[nH]cn1)NC(=O)[C@H](CCCNC(=N)N)NC(=O)[C@H](CC(C)C)NC(=O)[C@H](Cc1ccccc1)NC(=O)[C@H](CCC(=O)O)NC(=O)[C@H](C)NC(=O)[C@H](CC(C)C)NC(=O)[C@H](CCCNC(=N)N)NC(=O)[C@H](CCC(N)=O)NC(=O)[C@@H](NC(=O)[C@H](C)NC(=O)[C@@H]1CSSC[C@H](NC(=O)[C@@H](N)CCCCNC(=O)CC[C@H](NC(=O)CC[C@H](NC(=O)CCCCCCCCCCCCCCCCCCC(=O)O)C(=O)O)C(=O)O)C(=O)N[C@@H](CC(N)=O)C(=O)N[C@@H]([C@@H](C)O)C(=O)N[C@@H](C)C(=O)N[C@@H]([C@@H](C)O)C(=O)N1)[C@@H](C)O)C(=O)N1CCC[C@H]1C(=O)N[C@@H](CO)C(=O)N[C@@H](CO)C(=O)N[C@H](C(=O)N[C@@H](CC(N)=O)C(=O)N[C@H](C(=O)NCC(=O)N[C@@H](CCCNC(=N)N)C(=O)N[C@@H](CC(N)=O)C(=O)N[C@H](C(=O)N[C@@H](Cc1ccc(O)cc1)C(N)=O)[C@@H](C)O)C(C)C)[C@@H](C)O, also called compound 88) | 46.5 | 34.9 nM | 0.75 nM |
| K([γGlu-γGlu-C20 diacid])CNTATCATQRLAEFLRHSSPNFGAIPSSTNVGSRTY-NH2 (disulfide 2-7; N-terminus assumed; SMILES CC[C@H](C)[C@H](NC(=O)[C@H](C)NC(=O)CNC(=O)[C@H](Cc1ccccc1)NC(=O)[C@H](CC(N)=O)NC(=O)[C@@H]1CCCN1C(=O)[C@H](CO)NC(=O)[C@H](CO)NC(=O)[C@H](Cc1c[nH]cn1)NC(=O)[C@H](CCCNC(=N)N)NC(=O)[C@H](CC(C)C)NC(=O)[C@H](Cc1ccccc1)NC(=O)[C@H](CCC(=O)O)NC(=O)[C@H](C)NC(=O)[C@H](CC(C)C)NC(=O)[C@H](CCCNC(=N)N)NC(=O)[C@H](CCC(N)=O)NC(=O)[C@@H](NC(=O)[C@H](C)NC(=O)[C@@H]1CSSC[C@H](NC(=O)[C@@H](N)CCCCNC(=O)CC[C@H](NC(=O)CC[C@H](NC(=O)CCCCCCCCCCCCCCCCCCC(=O)O)C(=O)O)C(=O)O)C(=O)N[C@@H](CC(N)=O)C(=O)N[C@@H]([C@@H](C)O)C(=O)N[C@@H](C)C(=O)N[C@@H]([C@@H](C)O)C(=O)N1)[C@@H](C)O)C(=O)N1CCC[C@H]1C(=O)N[C@@H](CO)C(=O)N[C@@H](CO)C(=O)N[C@H](C(=O)N[C@@H](CC(N)=O)C(=O)N[C@H](C(=O)NCC(=O)N[C@@H](CO)C(=O)N[C@@H](CCCNC(=N)N)C(=O)N[C@H](C(=O)N[C@@H](Cc1ccc(O)cc1)C(N)=O)[C@@H](C)O)C(C)C)[C@@H](C)O, also called compound 89) | 28 | 32.5 nM | 1.16 nM |
| K([γGlu-γGlu-C20 diacid])CNTATCATQRLAEFLRHSSPNFGAIPSSTNVGHETY-NH2 (disulfide 2-7; N-terminus assumed; SMILES CC[C@H](C)[C@H](NC(=O)[C@H](C)NC(=O)CNC(=O)[C@H](Cc1ccccc1)NC(=O)[C@H](CC(N)=O)NC(=O)[C@@H]1CCCN1C(=O)[C@H](CO)NC(=O)[C@H](CO)NC(=O)[C@H](Cc1c[nH]cn1)NC(=O)[C@H](CCCNC(=N)N)NC(=O)[C@H](CC(C)C)NC(=O)[C@H](Cc1ccccc1)NC(=O)[C@H](CCC(=O)O)NC(=O)[C@H](C)NC(=O)[C@H](CC(C)C)NC(=O)[C@H](CCCNC(=N)N)NC(=O)[C@H](CCC(N)=O)NC(=O)[C@@H](NC(=O)[C@H](C)NC(=O)[C@@H]1CSSC[C@H](NC(=O)[C@@H](N)CCCCNC(=O)CC[C@H](NC(=O)CC[C@H](NC(=O)CCCCCCCCCCCCCCCCCCC(=O)O)C(=O)O)C(=O)O)C(=O)N[C@@H](CC(N)=O)C(=O)N[C@@H]([C@@H](C)O)C(=O)N[C@@H](C)C(=O)N[C@@H]([C@@H](C)O)C(=O)N1)[C@@H](C)O)C(=O)N1CCC[C@H]1C(=O)N[C@@H](CO)C(=O)N[C@@H](CO)C(=O)N[C@H](C(=O)N[C@@H](CC(N)=O)C(=O)N[C@H](C(=O)NCC(=O)N[C@@H](Cc1c[nH]cn1)C(=O)N[C@@H](CCC(=O)O)C(=O)N[C@H](C(=O)N[C@@H](Cc1ccc(O)cc1)C(N)=O)[C@@H](C)O)C(C)C)[C@@H](C)O) | 29.1 | 15.2 nM | 0.525 nM |
